Where a chain is given by its changes, count along the chain named. Like-named read-outs stand apart in the source and are kept apart here.
T1: pig TF ECD-His (pig TF-His) protein (pig (Sus scrofa))
T1 construct: Extracellular domain with a C-terminal TG-His6 tag, used as analyte in Biacore; also called pTF
T1 chain: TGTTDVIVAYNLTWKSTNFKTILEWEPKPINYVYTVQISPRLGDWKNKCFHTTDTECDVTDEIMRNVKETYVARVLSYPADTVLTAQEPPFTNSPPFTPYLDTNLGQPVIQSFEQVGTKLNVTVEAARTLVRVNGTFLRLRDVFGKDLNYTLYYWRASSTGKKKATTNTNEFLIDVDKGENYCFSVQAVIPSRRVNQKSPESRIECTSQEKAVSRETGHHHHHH

T2: cynomolgus TF ECD-His6 (cynomolgus monkey (Macaca fascicularis))
T2 construct: made in Expi293 cells; also called TF-His; cTF
T2 chain: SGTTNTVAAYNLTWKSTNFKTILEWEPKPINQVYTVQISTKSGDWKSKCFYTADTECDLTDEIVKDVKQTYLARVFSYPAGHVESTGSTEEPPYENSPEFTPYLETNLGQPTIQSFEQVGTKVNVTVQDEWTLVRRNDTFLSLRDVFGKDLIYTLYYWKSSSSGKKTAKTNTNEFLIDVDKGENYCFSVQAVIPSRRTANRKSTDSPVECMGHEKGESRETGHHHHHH

T3: hTF_K149N (human, UniProt P13726 33-251)
T3 construct: the entry already holds K149N; on transfected HEK293 cells; not shown: transmembrane and cytoplasmic part of the construct expressed on HEK293 cells
T3 chain: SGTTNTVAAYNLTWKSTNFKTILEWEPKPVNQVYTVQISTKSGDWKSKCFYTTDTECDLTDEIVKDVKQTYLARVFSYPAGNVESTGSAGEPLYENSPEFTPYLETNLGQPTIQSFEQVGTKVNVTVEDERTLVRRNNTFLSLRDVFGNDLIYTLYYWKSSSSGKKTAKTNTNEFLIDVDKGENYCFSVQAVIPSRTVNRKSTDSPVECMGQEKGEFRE

T4: hTF_N171H_T197K (human, UniProt P13726 33-251)
T4 construct: the entry already holds N171H and T197K; on transfected HEK293 cells
T4 chain: T3 chain with N149K, N171H, T197K

T5: h1-107_r (human/rat chimera)
T5 construct: on HEK293 cells
T5 chain: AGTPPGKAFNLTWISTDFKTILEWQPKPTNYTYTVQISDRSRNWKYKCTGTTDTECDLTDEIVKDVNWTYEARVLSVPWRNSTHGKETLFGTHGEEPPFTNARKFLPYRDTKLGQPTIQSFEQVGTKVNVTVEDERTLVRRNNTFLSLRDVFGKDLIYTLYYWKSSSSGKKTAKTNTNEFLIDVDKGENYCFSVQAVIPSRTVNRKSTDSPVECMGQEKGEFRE

T6: hTF_N171H_T197K (human, UniProt P13726 33-251)
T6 construct: on HEK293 cells
T6 chain: T3 chain with N149K, N171H, T197K

B1: anti-TF antibody 1G (antibody, human IgG1, V domains shown)
VH: EVQLLESGGGLVQPGGSLRLSCAASGFTFSSYAMAWVRQAPGKGLEWVSAISGSGGLTYYADSVKGRFTISRDNSKNTLYLQMNSLRAEDTAVYYCAKAPYGYYMDVWGKGTTVTVSS
VL: not shown
notes: Human IgG1
B2: anti-TF antibody 25G9 (antibody, human IgG1, kappa, V domains shown)
VH: QVQLVQSGAEVKKPGASVKVSCKASGYTFRSYGISWVRQAPGQGLEWMGWVAPYSGNTNYAQKLQGRVTMTTDTSTSTAYMELRSLRSDDTAVYYCARDAGTYSPYGYGMDVWGQGTTVTVSS
VL: DIQMTQSPSTLSASVGDRVTITCQASQSIDSWLAWYQQKPGKAPKLLIYSASYLESGVPSRFSGSGSGTEFTLTISSLQPDDFATYYCQRFQSLPPFTFGGGTKVEIKR
notes: Human IgG1
B3: anti-TF antibody 43D8 (antibody, human IgG1, kappa, V domains shown)
VH: QVQLQQWGAGLLKPSETLSLTCAVYGGSLSGYYWSWIRQPPGKGLEWIGEIGASGSTRYNPSLKSRVTISVDTSKNQFSLKLSSVTAADTAVYYCARDTPYYYEGGYYYYMDVWGKGTTVTVSS
VL: EIVLTQSPGTLSLSPGERATLSCRASQSVSSSFLAWYQQKPGQAPRLLIYGAYSRATGIPDRFSGSGSGTDFTLTISRLEPEDFAVYYCQQAGVVPYTFGGGTKVEIKR
notes: Human IgG1
B4: 25A (antibody, human IgG1, V domains shown)
VH: B2 VH with R30D, S31V, V51I, S55N, Y106F
VL: DIQMTQSPSTLSASVGDRVTITCRASQSISSWLAWYQQKPGKAPKLLIYKASSLESGVPSRFSGSGSGTEFTLTISSLQPDDFATYYCQQFQSLPPFTFGGGTKVEIK
notes: human IgG1
B5: 25G1 (antibody, human IgG1, kappa, V domains shown)
VH: B2 VH
VL: B2 VL with Q24R, Q27H, S50K, R90L
notes: human IgG1
B6: 25G9 (antibody, human IgG1, kappa, V domains shown)
VH: B2 VH
VL: B2 VL
notes: human IgG1
B7: 1F (antibody, human IgG1, V domains shown)
VH: B1 VH with S31D, A35G, A50T
VL: not shown
notes: Human IgG1
B8: 29E (antibody, human IgG1, V domains shown)
VH: QVQLVESGGGVVQPGRSLRLSCAASGFTFRSYGMHWVRQAPGKGLEWVAVITYDGINKYYADSVEGRFTISRDNSKNTLYLQMNSLRAEDTAVYYCARDGVYYGVYDYWGQGTLVTVSS
VL: not shown
notes: Human IgG1
B9: 54E (antibody, human IgG1, V domains shown)
VH: QVQLVQSGAEVKKPGASVKVSCKASGYTFANYYMHWVRQAPGQGLEWMGIINPSGGITVYAQKFQGRVTMTRDTSTSTVYMELSSLRSEDTAVYYCARGGSKVAALAFDIWGQGTMVTVSS
VL: DIQMTQSPSSLSASVGDRVTITCQASQDISNSLNWYQQKPGKAPKLLIYDASNLETGVPSRFSGSRSGTDFTFTISSLQPEDIATYYCQQYNFHPLTFGGGTKVEIK
notes: Human IgG1

Assays:
[1] = molecular target: T7, human Tissue Factor (hTF), endogenously expressed on human TF-positive cells (human, UniProt P13726 33-295); experiment: cell-based or functional assay
[2] = molecular target: T1, pig TF ECD-His (pig TF-His) protein; experiment: Biacore, antibody captured by anti-human IgG on CM5 chip, pig TF-His as analyte
[3] = molecular target: T7, human Tissue Factor (hTF), endogenously …; experiment: flow cytometry competition on A431 cells, 100 nM unlabelled antibody, competitor 20 nM 25A-Alexa488
[4] = molecular target: T7, human Tissue Factor (hTF), endogenously …; experiment: flow cytometry competition on A431 cells, 100 nM unlabelled antibody, competitor 20 nM 43Ea-Alexa488
[5] = molecular target: T1, pig TF ECD-His (pig TF-His) protein; experiment: Biacore, antibody captured by anti-human IgG on CM5 chip, pig TF-His as analyte, 1:1 model
human TF ECD-His6 [6] = molecular target: T8, human TF ECD-His6 (human, UniProt P13726 33-251); experiment: BLI (ForteBio Octet)
T8 construct: made in Expi293 cells; the entry holds the ECD with the C-terminal TG-His6; also called TF-His; hTF

cynomolgus TF ECD-His6 [7] = molecular target: T2, cynomolgus TF ECD-His6; experiment: BLI (ForteBio Octet)
mouse TF ECD-His6 [8] = molecular target: T9, mouse TF ECD-His6 (mouse, UniProt P20352 29-251); experiment: BLI (ForteBio Octet)
T9 construct: made in Expi293 cells; also called TF-His; mTF

human TF ECD-His6 [9] = molecular target: T8, human TF ECD-His6; experiment: SPR (Biacore), antibody on chip, TF-His titrated
cynomolgus TF ECD-His6 [10] = molecular target: T2, cynomolgus TF ECD-His6; experiment: SPR (Biacore), antibody on chip, TF-His titrated
[11] = molecular target: rTF (rat TF) on HEK293 cells (rat, UniProt P42533 29-252); experiment: live cell staining of transfected HEK293, flow cytometry
hTF_K149N = molecular target: T3, hTF_K149N; experiment: as above
hTF_N171H_T197K [12] = molecular target: T4, hTF_N171H_T197K; experiment: as above
mouse TF ECD-His6 [13] = molecular target: T9, mouse TF ECD-His6; experiment: SPR (Biacore), antibody on chip, TF-His titrated
rTF (rat TF) [14] = molecular target: T10, rTF (rat TF) (rat, UniProt P42533 29-252); experiment: live cell staining, flow cytometry
T10 construct: Expressed on the surface of transfected HEK293 cells

h1-107_r = molecular target: T5, h1-107_r; experiment: live cell staining, flow cytometry
h1-77_r = molecular target: T11, h1-77_r (human/rat chimera); experiment: live cell staining, flow cytometry
T11 construct: Human TF with ECD residues 1-77 replaced by the rat segment; on HEK293 cells

h78-107_r.v2 = molecular target: T12, h78-107_r.v2 (human/rat chimera); experiment: live cell staining, flow cytometry
T12 construct: on HEK293 cells

hTF = molecular target: T13, hTF (human, UniProt P13726 33-251); experiment: live cell staining, flow cytometry
T13 construct: also called human TF; human Tissue Factor

rTF (rat TF) [15] = molecular target: T10, rTF (rat TF); experiment: live cell staining, flow cytometry; remark: listed apart in the source
r141-194_h = molecular target: T14, r141-194_h (rat/human chimera, UniProt P42533 29-252); experiment: live cell staining, flow cytometry
T14 construct: on HEK293 cells

hTF_N171H_T197K [16] = molecular target: T6, hTF_N171H_T197K; experiment: live cell staining, flow cytometry
h159-219_r = molecular target: T15, h159-219_r (human/rat chimera); experiment: live cell staining, flow cytometry
T15 construct: on HEK293 cells

| Binder | % GM-CSF, 2.56 nM antibody, MDA-MB-231 cells + FVIIa [1] | % GM-CSF, 6.4 nM antibody, MDA-MB-231 cells + FVIIa [1] | % GM-CSF, 16 nM antibody, MDA-MB-231 cells + FVIIa [1] | % GM-CSF, 40 nM antibody, MDA-MB-231 cells + FVIIa [1] | % GM-CSF, 100 nM antibody, MDA-MB-231 cells + FVIIa [1] | Kd (human TF ECD-His6 [6]) | Kd (cynomolgus TF ECD-His6 [7]) | Kd (mouse TF ECD-His6 [8]) | Kd (cynomolgus TF ECD-His6 [10]) | binding result [11] | binding result (hTF_K149N) | binding result (hTF_N171H_T197K [12]) | Percent antibody binding to TF construct relative to hTF (rTF (rat TF) [14]) | Percent antibody binding to TF construct relative to hTF (h1-107_r) | Percent antibody binding to TF construct relative to hTF (h1-77_r) | Percent antibody binding to TF construct relative to hTF (h78-107_r.v2) | Percent antibody binding to TF construct relative to hTF (hTF) | Percent antibody binding to TF construct relative to hTF (rTF (rat TF) [15]) | Percent antibody binding to TF construct relative to hTF (r141-194_h) | Percent antibody binding to TF construct relative to hTF (hTF_N171H_T197K [16]) | also measured |
| --- | --- | --- | --- | --- | --- | --- | --- | --- | --- | --- | --- | --- | --- | --- | --- | --- | --- | --- | --- | --- | --- |
| B1 | 34% | 9% | 7% | 7% | 7% | – | – | – | – | – | – | – | – | – | – | – | – | – | – | – | binding result [2]: no binding; % 25A binding [3]: 75%; % 43Ea binding [4]: 58% |
| B2 | 60% | 34% | 26% | 26% | 25% | – | – | – | – | – | – | – | – | – | – | – | – | – | – | – | Kd [5]: 3.31 nM |
| B3 | 57% | 24% | 11% | 11% | 12% | – | – | – | – | – | – | – | – | – | – | – | – | – | – | – | Kd [5]: 12.9 nM |
| B4 | – | – | – | – | – | 8.45 nM | 7.65 nM | 263 nM | 5.42 nM | no binding (tested: 15 µg/ml (100 nM)) | no binding | no binding | – | – | – | – | – | – | – | – | Kd (human TF ECD-His6 [9]): 6.2 nM |
| B5 | – | – | – | – | – | 3.97 nM | 4.99 nM | 34.2 nM | 0.78 nM | no binding (tested: 15 µg/ml (100 nM)) | no binding | no binding | – | – | – | – | – | – | – | – | Kd (mouse TF ECD-His6 [13]): 5.4 nM |
| B6 | – | – | – | – | – | 35.8 nM | 42.9 nM | 9.16 nM | 16.4 nM | no binding (tested: 15 µg/ml (100 nM)) | no binding | no binding | – | – | – | – | – | – | – | – | Kd (human TF ECD-His6 [9]): 13.3 nM; Kd (mouse TF ECD-His6 [13]): 2.9 nM |
| B7 | – | – | – | – | – | – | – | – | – | – | – | – | 0% | 0% | 0% | 0% | 100% | 0% | 0% | 83% | – |
| B8 | – | – | – | – | – | – | – | – | – | – | – | – | 0% | 0% | 0% | 0% | 100% | 0% | 0% | 98% | – |
| B9 | – | – | – | – | – | – | – | – | – | – | – | – | 0% | 0% | 0% | 62% | 100% | 0% | 0% | 89% | Percent antibody binding to TF construct relative to hTF (h159-219_r): 142% |
